Test [1] has as its target His (control coat of Table 2). Description: phage ELISA. Background: An ELISA detects its analyte on a solid surface through an enzyme-linked reagent.
In test [2] the target is α-myc (anti-myc antibody coated as second antigen). The experiment in a line: phage ELISA.

Drawing on patent publication US20160108118A1, this text covers OD490 for 3 molecules.

B1: scFv-phage clone 9E (scFv, part only; not given: scFv linker and domain order, part only)
scFv, part: QVQLVESGGGVVQPGRSLRLSCAASGFTFSSYGMHWVRQAPGKGLEWVAVISYDGNNKYYVDSVKGRFTISRDNSKNTLYLQMNSLRSEDTAVYYCARDSGSYLDWYFDLWGRGTLVTVSSQPPSVSVAPGKTARIACGGGNIGDKSVHWYQQKPGQAPVLVIFYDSDRPSGIPKRLSGSNSGNTATLTISRVEAGDEGDYYCQVWDSSSDRPVFGGGTKLTVLG
B1: the OD490 in test [1] worked out at 0.043; in test [2], 2.01.

B2: scFv-phage clone 12D (scFv, part only; not given: scFv linker and domain order, part only)
scFv, part: QVQLVQSGGGVVQPGRSLRLSCVASAFTFSRYGMHWVRQAPGKGLEWVALISYDGSSEYYADSVKGRFNISRDNSKNTVYLQMNSLRAEDTAVYYCVKDGLAAKLGHWGQGTLVTVSSQAPSLSVSPGQTANIICSGDNLRTKYVSWYQQKPGQSPLLVIYQDTRRPSGIPARFSGSNSGNTATLTISGTQTERESTYYCMTWDVDTTSMIFGGGTKLTVLG
For B2, the OD490 in test [1] is 0.049; in test [2], 0.888.

B3: scFv-phage clone 10D (scFv)
scFv: QVQLVQSGGGVVQPGRSLRLSCAASGFTFSSYGMHWVRQAPGKGLEWVAVISYDGSNKYYADSVKGRFTISRDNSKNTLYLQMNSLRSEDTAVYYCARDKRAAFDIWGQGKMVTVSSGLGGLGGGGSGGGGSGGSSGVGSSYELTQAPSLSVSPGQTANIICSGDNLRTKYVSWYQQKPGQSPLLVIYQDTRRPSGIPARFSGSNSGNTATLTISGTQTERESTYYCMTWDVDTTSMIFGGGTKLTVL
In turn, B3 yielded an OD490 in test [2] of 3.02.
